± gives the uncertainty stated by the source.
B1: E3 ubiquitin-protein ligase NEDD4, residues 836 to 881; numbered along this chain, P46934 (parent)
chain: EIEQGFLPKGWEVRHAPNGRPFFIDHNTKTTTWEDPRLKIPAHLRG

Variants of: B1
Test: abundance fitness (aPCA) (normalised: wild type 0, dead -1); higher = more abundant; growth selection in yeast, the domain comes from the species named
Conditions: Homo sapiens

Row | Variant | abundance fitness
1 | R14M | -0.525 ± 0.08
2 | R14A | -0.156 ± 0.048
3 | R14F | -0.272 ± 0.054
4 | R14P | -0.407 ± 0.13
5 | R14T | -0.562 ± 0.075
6 | R14G | -0.114 ± 0.044
7 | R14S | -0.297 ± 0.042
8 | R14N | -0.783 ± 0.17
9 | R14C | -0.07 ± 0.047
10 | R14E | -0.539 ± 0.091
11 | R14I | -0.556 ± 0.094
12 | R14W | -0.458 ± 0.061
13 | R14H | -0.47 ± 0.12
14 | R14Y | -0.407 ± 0.054
15 | R14D | -0.289 ± 0.034
16 | R14Q | -0.121 ± 0.08
17 | W11K | -0.409 ± 0.063
18 | W11S | -0.424 ± 0.048
19 | W11D | -0.539 ± 0.16
20 | W11I | -0.459 ± 0.1
21 | W11N | -0.106 ± 0.091
22 | W11C | -0.418 ± 0.094
23 | W11L | -0.648 ± 0.073
24 | W11Q | -0.455 ± 0.068

Row | Variant | abundance fitness
25 | W11G | -0.575 ± 0.037
26 | W11P | -0.817 ± 0.12
27 | W11M | -0.563 ± 0.058
28 | W11E | -0.326 ± 0.044
29 | W11H | -0.761 ± 0.21
30 | W11A | -0.79 ± 0.096
31 | W11F | -0.795 ± 0.21
32 | W11T | -0.792 ± 0.17
33 | H15A | -0.095 ± 0.079
34 | H15K | 0.081 ± 0.064
35 | H15F | -0.074 ± 0.087
36 | H15G | -0.508 ± 0.065
37 | H15M | -0.34 ± 0.084
38 | H15R | -0.004 ± 0.033
39 | H15C | 0.166 ± 0.064
40 | H15D | -0.031 ± 0.092
41 | H15W | -0.133 ± 0.049
42 | H15Y | -0.147 ± 0.071
43 | H15E | -0.116 ± 0.072
44 | H15L | -0.013 ± 0.033
45 | H15T | -0.047 ± 0.042
46 | H15P | -0.507 ± 0.083
47 | H15Q | -0.257 ± 0.098
48 | H15N | -0.113 ± 0.037

Row | Variant | abundance fitness
49 | H15I | -0.051 ± 0.081
50 | E12R | -0.793 ± 0.067
51 | E12H | -0.227 ± 0.11
52 | E12G | -0.882 ± 0.11
53 | E12Q | -0.307 ± 0.077
54 | E12C | -0.758 ± 0.063
55 | E12W | -0.692 ± 0.13
56 | E12S | -0.278 ± 0.05
57 | E12V | -0.526 ± 0.052
58 | E12F | -0.352 ± 0.11
59 | E12L | -0.942 ± 0.094
60 | E12P | -0.967 ± 0.096
61 | E12M | -0.89 ± 0.14
62 | E12T | -0.274 ± 0.059
63 | E12N | -0.949 ± 0.17
64 | E12A | -0.533 ± 0.066
65 | E12K | -0.599 ± 0.058
66 | E12I | -0.633 ± 0.099
67 | A16L | -0.345 ± 0.1
68 | A16Q | -0.353 ± 0.069
69 | A16K | -0.698 ± 0.23
70 | A16V | -0.505 ± 0.066
71 | A16Y | -0.657 ± 0.2
72 | A16G | -0.108 ± 0.05

Row | Variant | abundance fitness
73 | A16T | 0.127 ± 0.079
74 | A16P | -0.416 ± 0.14
75 | A16I | -0.193 ± 0.23
76 | A16R | -0.668 ± 0.099
77 | A16M | -0.216 ± 0.11
78 | A16N | -0.435 ± 0.22
79 | A16C | -0.11 ± 0.081
80 | A16E | -0.387 ± 0.064
81 | R20D | -0.212 ± 0.083
82 | R20C | -0.278 ± 0.05
83 | R20E | -0.035 ± 0.055
84 | R20W | -0.946 ± 0.14
85 | R20V | -0.105 ± 0.051
86 | R20N | -0.271 ± 0.043
87 | R20G | -0.917 ± 0.12
88 | R20S | -0.087 ± 0.05
89 | R20A | 0.016 ± 0.086
90 | R20K | 0.16 ± 0.046
91 | R20L | -0.223 ± 0.036
92 | R20Y | -0.577 ± 0.1
93 | R20M | -0.052 ± 0.052
94 | R20F | -0.78 ± 0.1
95 | R20T | -0.207 ± 0.07
96 | R20Q | 0.137 ± 0.051

Row | Variant | abundance fitness
97 | R20H | -0.064 ± 0.071
98 | R20I | -0.257 ± 0.051
99 | R20P | -0.857 ± 0.17
100 | G19W | -0.833 ± 0.1
101 | G19L | -0.923 ± 0.11
102 | G19C | -0.929 ± 0.2
103 | G19N | -0.551 ± 0.12
104 | G19H | -0.496 ± 0.27
105 | G19D | -0.943 ± 0.26
106 | G19Q | -0.632 ± 0.15
107 | G19A | -0.734 ± 0.1
108 | G19K | -0.826 ± 0.17
109 | G19E | -0.628 ± 0.072
110 | G19T | -1.05 ± 0.38
111 | G19Y | -0.828 ± 0.053
112 | G19P | -0.695 ± 0.14
113 | G19M | -0.827 ± 0.094
114 | N18C | -0.256 ± 0.093
115 | N18F | -0.75 ± 0.1
116 | N18I | -0.976 ± 0.24
117 | N18T | -0.29 ± 0.033
118 | N18R | -0.805 ± 0.11
119 | N18S | -0.241 ± 0.051
120 | N18M | -0.907 ± 0.065

Row | Variant | abundance fitness
121 | N18Q | -1.06 ± 0.34
122 | N18V | -0.83 ± 0.076
123 | N18G | -0.063 ± 0.034
124 | N18E | -0.232 ± 0.064
125 | N18K | -0.652 ± 0.15
126 | N18W | -0.664 ± 0.054
127 | N18H | -0.718 ± 0.097
128 | N18Y | -0.802 ± 0.23
129 | N18P | -0.255 ± 0.13
130 | N18L | -0.696 ± 0.087
131 | N18A | -0.69 ± 0.091
132 | V13A | -0.266 ± 0.036
133 | V13N | -0.836 ± 0.23
134 | V13L | -0.122 ± 0.03
135 | V13R | -0.149 ± 0.034
136 | V13Q | -0.135 ± 0.058
137 | V13T | -0.529 ± 0.09
138 | V13F | -0.159 ± 0.084
139 | V13K | -0.032 ± 0.045
140 | V13S | -0.399 ± 0.048
141 | V13P | -0.764 ± 0.14
142 | V13H | -0.724 ± 0.23
143 | V13W | -0.842 ± 0.12
144 | V13C | -0.252 ± 0.052

Row | Variant | abundance fitness
145 | V13M | 0.05 ± 0.032
146 | V13G | -0.747 ± 0.07
147 | V13E | 0.069 ± 0.062
148 | V13Y | -0.799 ± 0.2
149 | P17G | -0.323 ± 0.063
150 | P17I | -0.012 ± 0.15
151 | P17V | -0.191 ± 0.045
152 | P17T | -0.298 ± 0.07
153 | P17A | -0.075 ± 0.064
154 | P17C | -0.295 ± 0.055
155 | P17E | 0.016 ± 0.053
156 | P17R | -0.178 ± 0.053
157 | P17H | -0.276 ± 0.13
158 | P17K | -0.115 ± 0.084
159 | P17W | -0.419 ± 0.077
160 | P17L | -0.197 ± 0.058
161 | P17Y | -0.662 ± 0.13
162 | P17Q | -0.585 ± 0.17
163 | P17F | -0.447 ± 0.049
164 | P17N | -0.308 ± 0.1
165 | P21A | -0.055 ± 0.04
166 | P21C | -0.084 ± 0.06
167 | P21D | -0.445 ± 0.039
